Source: patent US20210309732A1 (ELIXIRON IMMUNOTHERAPEUTICS HONG KONG, published 2021)

Target: T1, recombinant human GM-CSF (human, UniProt P04141 18-144)
T1 construct: also called rhGM-CSF; CSF2
Experiment: ELISA on coated rhGM-CSF, UBA relative to 1D2
Description: Some of the residues in the CDRs are essential for epitope binding affinity and/or specificity. A number of computational methods were developed to detect these functional residues, generally known as ‘specificity-determining resides’ (SDRs). […] Based on the analysis, 7 amino acid residues in VH and 3 amino acid residues in VL were selected as the SDRs. The residues are labeled X₁ to X₁₀ for the ease of reference. The SDRs on VH are: Heavy chain D31 (HD31) (X₁), HK32 (X₂), HK54(X₃), HR100 (X₄), HY102 (X₅), HY103 (X₆) and HQ105 (X₇). The SDRs on VL are Light chain V32 (LV32) (X₈), LP94 (X₉) and LV95 (X₁₀). The SDRs were subsequently mutated by site-directed mutagenesis to other amino acids to generate mutant VH or VL clones. HEK293 cells were co-transfected with a vector encoding a mutant VH paired with a vector encoding a wild type VL or a vector encoding a wild type VH paired with a vector encoding a mutant VL. The antibody clones were harvested from the culture medium. The binding affinity of each antibody clone to human GM-CSF was tested by ELISA. The ELISA was done according to the following procedures. ELISA plate was coated with 50 μl of rhGM-CSF at 1 μg/mL. The plate was washed with 200 μl PBST for three times, followed by blocking with 1% BSA for 1 hour at room temperature. The antibody clones to be tested were diluted at 1:12000. 100 μl of the diluted antibodies were added to the cell at 100 μl/well. The plate was incubated at room temperature for 1 hour. The plate was then washed and incubated with 1:5000 diluted goat-anti-human secondary antibody conjugated with HRP at room temperature for one hour. The ELISA assay was developed with 100 μl developing buffer containing H₂O₂-Amplx Red per well in the dark for 5 min and the fluorescence intensity was read at Ex.530/Em.590 nm, with cutoff at 570 nm. The Unit Binding Activity (UBA) of each sample was calculated as the fluorescence signal/antibody clone dilution factor.

T1 sequence (P04141 18-144 limits assumed): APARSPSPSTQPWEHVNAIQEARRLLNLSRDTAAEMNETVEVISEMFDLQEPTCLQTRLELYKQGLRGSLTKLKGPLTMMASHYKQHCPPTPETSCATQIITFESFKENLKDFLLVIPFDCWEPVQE

Binder	binding affinity % of 1D2 [%]
1D2 SDR mutant HR100L (antibody, IgG1, V domains shown, also called X4 L) VH: QVQLVQSGAEVKKPGASVKVSCEASGYTFTDKYLHWVRQAPGQGLEWMAWINPKSGGTFYAQNFKGRVTVTRDTSINTAYLELTSLRLDDTSTYYCARGLDYYDQGAADLWGQGTMVTVSS VL: DIQLTQSPSSLSASVGDRVTITCRASQGINSVLAWYQQKPGKAPKLLLYAASKLESGVPSRFSGSGSGTDYTLTISSLQPEDFGTYYCQQYYSPVRTFGQGTKVEIKR	69
1D2 SDR mutant HY102S (antibody, IgG1, V domains shown, also called X5 S) VH: QVQLVQSGAEVKKPGASVKVSCEASGYTFTDKYLHWVRQAPGQGLEWMAWINPKSGGTFYAQNFKGRVTVTRDTSINTAYLELTSLRLDDTSTYYCARGRDSYDQGAADLWGQGTMVTVSS VL: DIQLTQSPSSLSASVGDRVTITCRASQGINSVLAWYQQKPGKAPKLLLYAASKLESGVPSRFSGSGSGTDYTLTISSLQPEDFGTYYCQQYYSPVRTFGQGTKVEIKR	104
1D2 SDR mutant HR100P (antibody, IgG1, V domains shown, also called X4 P) VH: QVQLVQSGAEVKKPGASVKVSCEASGYTFTDKYLHWVRQAPGQGLEWMAWINPKSGGTFYAQNFKGRVTVTRDTSINTAYLELTSLRLDDTSTYYCARGPDYYDQGAADLWGQGTMVTVSS VL: DIQLTQSPSSLSASVGDRVTITCRASQGINSVLAWYQQKPGKAPKLLLYAASKLESGVPSRFSGSGSGTDYTLTISSLQPEDFGTYYCQQYYSPVRTFGQGTKVEIKR	101
1D2 SDR mutant HR100V (antibody, IgG1, V domains shown, also called X4 V) VH: QVQLVQSGAEVKKPGASVKVSCEASGYTFTDKYLHWVRQAPGQGLEWMAWINPKSGGTFYAQNFKGRVTVTRDTSINTAYLELTSLRLDDTSTYYCARGVDYYDQGAADLWGQGTMVTVSS VL: DIQLTQSPSSLSASVGDRVTITCRASQGINSVLAWYQQKPGKAPKLLLYAASKLESGVPSRFSGSGSGTDYTLTISSLQPEDFGTYYCQQYYSPVRTFGQGTKVEIKR	74
1D2 SDR mutant HY102I (antibody, IgG1, V domains shown, also called X5 I) VH: QVQLVQSGAEVKKPGASVKVSCEASGYTFTDKYLHWVRQAPGQGLEWMAWINPKSGGTFYAQNFKGRVTVTRDTSINTAYLELTSLRLDDTSTYYCARGRDIYDQGAADLWGQGTMVTVSS VL: DIQLTQSPSSLSASVGDRVTITCRASQGINSVLAWYQQKPGKAPKLLLYAASKLESGVPSRFSGSGSGTDYTLTISSLQPEDFGTYYCQQYYSPVRTFGQGTKVEIKR	64
1D2 SDR mutant HY102F (antibody, IgG1, V domains shown, also called X5 F) VH: QVQLVQSGAEVKKPGASVKVSCEASGYTFTDKYLHWVRQAPGQGLEWMAWINPKSGGTFYAQNFKGRVTVTRDTSINTAYLELTSLRLDDTSTYYCARGRDFYDQGAADLWGQGTMVTVSS VL: DIQLTQSPSSLSASVGDRVTITCRASQGINSVLAWYQQKPGKAPKLLLYAASKLESGVPSRFSGSGSGTDYTLTISSLQPEDFGTYYCQQYYSPVRTFGQGTKVEIKR	71
1D2 SDR mutant HY102T (antibody, IgG1, V domains shown, also called X5 T) VH: QVQLVQSGAEVKKPGASVKVSCEASGYTFTDKYLHWVRQAPGQGLEWMAWINPKSGGTFYAQNFKGRVTVTRDTSINTAYLELTSLRLDDTSTYYCARGRDTYDQGAADLWGQGTMVTVSS VL: DIQLTQSPSSLSASVGDRVTITCRASQGINSVLAWYQQKPGKAPKLLLYAASKLESGVPSRFSGSGSGTDYTLTISSLQPEDFGTYYCQQYYSPVRTFGQGTKVEIKR	56
1D2 SDR mutant HR100S (antibody, IgG1, V domains shown, also called X4 S) VH: QVQLVQSGAEVKKPGASVKVSCEASGYTFTDKYLHWVRQAPGQGLEWMAWINPKSGGTFYAQNFKGRVTVTRDTSINTAYLELTSLRLDDTSTYYCARGSDYYDQGAADLWGQGTMVTVSS VL: DIQLTQSPSSLSASVGDRVTITCRASQGINSVLAWYQQKPGKAPKLLLYAASKLESGVPSRFSGSGSGTDYTLTISSLQPEDFGTYYCQQYYSPVRTFGQGTKVEIKR	72
1D2 SDR mutant HR100M (antibody, IgG1, V domains shown, also called X4 M) VH: QVQLVQSGAEVKKPGASVKVSCEASGYTFTDKYLHWVRQAPGQGLEWMAWINPKSGGTFYAQNFKGRVTVTRDTSINTAYLELTSLRLDDTSTYYCARGMDYYDQGAADLWGQGTMVTVSS VL: DIQLTQSPSSLSASVGDRVTITCRASQGINSVLAWYQQKPGKAPKLLLYAASKLESGVPSRFSGSGSGTDYTLTISSLQPEDFGTYYCQQYYSPVRTFGQGTKVEIKR	94
1D2 SDR mutant HR100Q (antibody, IgG1, V domains shown, also called X4 Q) VH: QVQLVQSGAEVKKPGASVKVSCEASGYTFTDKYLHWVRQAPGQGLEWMAWINPKSGGTFYAQNFKGRVTVTRDTSINTAYLELTSLRLDDTSTYYCARGQDYYDQGAADLWGQGTMVTVSS VL: DIQLTQSPSSLSASVGDRVTITCRASQGINSVLAWYQQKPGKAPKLLLYAASKLESGVPSRFSGSGSGTDYTLTISSLQPEDFGTYYCQQYYSPVRTFGQGTKVEIKR	57
1D2 SDR mutant HY102V (antibody, IgG1, V domains shown, also called X5 V) VH: QVQLVQSGAEVKKPGASVKVSCEASGYTFTDKYLHWVRQAPGQGLEWMAWINPKSGGTFYAQNFKGRVTVTRDTSINTAYLELTSLRLDDTSTYYCARGRDVYDQGAADLWGQGTMVTVSS VL: DIQLTQSPSSLSASVGDRVTITCRASQGINSVLAWYQQKPGKAPKLLLYAASKLESGVPSRFSGSGSGTDYTLTISSLQPEDFGTYYCQQYYSPVRTFGQGTKVEIKR	71
1D2 SDR mutant HY103A (antibody, IgG1, V domains shown, also called X6 A) VH: QVQLVQSGAEVKKPGASVKVSCEASGYTFTDKYLHWVRQAPGQGLEWMAWINPKSGGTFYAQNFKGRVTVTRDTSINTAYLELTSLRLDDTSTYYCARGRDYADQGAADLWGQGTMVTVSS VL: DIQLTQSPSSLSASVGDRVTITCRASQGINSVLAWYQQKPGKAPKLLLYAASKLESGVPSRFSGSGSGTDYTLTISSLQPEDFGTYYCQQYYSPVRTFGQGTKVEIKR	88
1D2 SDR mutant HY102G (antibody, IgG1, V domains shown, also called X5 G) VH: QVQLVQSGAEVKKPGASVKVSCEASGYTFTDKYLHWVRQAPGQGLEWMAWINPKSGGTFYAQNFKGRVTVTRDTSINTAYLELTSLRLDDTSTYYCARGRDGYDQGAADLWGQGTMVTVSS VL: DIQLTQSPSSLSASVGDRVTITCRASQGINSVLAWYQQKPGKAPKLLLYAASKLESGVPSRFSGSGSGTDYTLTISSLQPEDFGTYYCQQYYSPVRTFGQGTKVEIKR	89
1D2 SDR mutant HY102W (antibody, IgG1, V domains shown, also called X5 W) VH: QVQLVQSGAEVKKPGASVKVSCEASGYTFTDKYLHWVRQAPGQGLEWMAWINPKSGGTFYAQNFKGRVTVTRDTSINTAYLELTSLRLDDTSTYYCARGRDWYDQGAADLWGQGTMVTVSS VL: DIQLTQSPSSLSASVGDRVTITCRASQGINSVLAWYQQKPGKAPKLLLYAASKLESGVPSRFSGSGSGTDYTLTISSLQPEDFGTYYCQQYYSPVRTFGQGTKVEIKR	82
1D2 SDR mutant HY102L (antibody, IgG1, V domains shown, also called X5 L) VH: QVQLVQSGAEVKKPGASVKVSCEASGYTFTDKYLHWVRQAPGQGLEWMAWINPKSGGTFYAQNFKGRVTVTRDTSINTAYLELTSLRLDDTSTYYCARGRDLYDQGAADLWGQGTMVTVSS VL: DIQLTQSPSSLSASVGDRVTITCRASQGINSVLAWYQQKPGKAPKLLLYAASKLESGVPSRFSGSGSGTDYTLTISSLQPEDFGTYYCQQYYSPVRTFGQGTKVEIKR	86
1D2 SDR mutant HY102N (antibody, IgG1, V domains shown, also called X5 N) VH: QVQLVQSGAEVKKPGASVKVSCEASGYTFTDKYLHWVRQAPGQGLEWMAWINPKSGGTFYAQNFKGRVTVTRDTSINTAYLELTSLRLDDTSTYYCARGRDNYDQGAADLWGQGTMVTVSS VL: DIQLTQSPSSLSASVGDRVTITCRASQGINSVLAWYQQKPGKAPKLLLYAASKLESGVPSRFSGSGSGTDYTLTISSLQPEDFGTYYCQQYYSPVRTFGQGTKVEIKR	83
1D2 SDR mutant HY102A (antibody, IgG1, V domains shown, also called X5 A) VH: QVQLVQSGAEVKKPGASVKVSCEASGYTFTDKYLHWVRQAPGQGLEWMAWINPKSGGTFYAQNFKGRVTVTRDTSINTAYLELTSLRLDDTSTYYCARGRDAYDQGAADLWGQGTMVTVSS VL: DIQLTQSPSSLSASVGDRVTITCRASQGINSVLAWYQQKPGKAPKLLLYAASKLESGVPSRFSGSGSGTDYTLTISSLQPEDFGTYYCQQYYSPVRTFGQGTKVEIKR	68
1D2 SDR mutant HR100T (antibody, IgG1, V domains shown, also called X4 T) VH: QVQLVQSGAEVKKPGASVKVSCEASGYTFTDKYLHWVRQAPGQGLEWMAWINPKSGGTFYAQNFKGRVTVTRDTSINTAYLELTSLRLDDTSTYYCARGTDYYDQGAADLWGQGTMVTVSS VL: DIQLTQSPSSLSASVGDRVTITCRASQGINSVLAWYQQKPGKAPKLLLYAASKLESGVPSRFSGSGSGTDYTLTISSLQPEDFGTYYCQQYYSPVRTFGQGTKVEIKR	93
